Data taken from PMC4220643 (2014).

What was measured:
[1] = biological target: Im7-D2 (C-terminal domain of D2 fused to Im7) (Thermosynechococcus elongatus, UniProt Q8CM25 289-352); experiment: SPR
[2] = biological target: Im7-D1a (D1 a-loop fused to Im7) (Thermosynechococcus elongatus, UniProt P0A444 54-113); experiment: SPR
Im7-D1a (D1 a-loop fused to Im7), sequence (P0A444 54-113): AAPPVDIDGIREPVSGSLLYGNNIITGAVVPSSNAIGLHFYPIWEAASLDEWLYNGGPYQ

Im7-D2 (C-terminal domain of D2 fused to Im7), sequence (Q8CM25 289-352): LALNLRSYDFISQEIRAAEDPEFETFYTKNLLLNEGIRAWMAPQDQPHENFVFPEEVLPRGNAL

Kd [1]: ~41 µM | Kd [2]: ~60 µM
B1: PsbO (natural protein)
chain: AKQTLTYDDIVGTGLANKCPTLDDTARGAYPIDSSQTYRIARLCLQPTTFLVKEEPKNKRQEAEFVPTKLVTRETTSLDQIQGELKVNSDGSLTFVEEDGIDFQPVTVQMAGGERIPLLFTVKNLVASTQPNVTSITTSTDFKGEFNVPSYRTANFLDPKGRGLASGYDSAIALPQAKEEELARANVKRFSLTKGQISLNVAKVDGRTGEIAGTFESEQLSDDDMGAHEPHEVKIQGVFYASIEPA
